The data set can be described thus: self-splicing fitness, log relative to wild type (ln ratio); higher = more splicing; Tetrahymena group I intron in knt gene, E. coli kanamycin selection, DiMSum; sequences stand for … in CUCUCU…GGAGGGAAAAGUUAUCAGGCAUGCACCUGGUAGCUAGUCUUUAAACCAAUAGAUUGCAUCGGUUUAAAAGGCAAGACCGUCAAAUUGCGGGAAAGGGGUCAACAGCCGUUCAGUACCAAGUCUCAGGGGAAACUUUGAGAUGGCCUUGCAAAGGGUAUGGUAAUAAGCUGACGGACAUGGUCCUAACCACGCAGCCAAGUCCUAAGUCAACAGAUCUUCUGUUGAUAUGGAUGCAGUUCACAGACUAAAUGUCGGUCGGGGAAGAUGUAUUCUUCUCAUAAGAUAUAGUCGGACCUCUCCUUAAUGGGAGCUAGCGGAUGAAGUGAUGCAACACUGGAGCCGCUGGGAACUAAUUUGUAUGCGAAAGUAUAUUGAUUAGUUUUGGAGUACUCGUGGUCG
A digest of the protocol:
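The eight P1ex-region nucleotides of an intron in the knt kanamycin-resistance gene on pET-22b(+) were all randomised and the library put into E. coli BL21(DE3). Six replicate transformations were grown overnight at 37°C or 30°C on LB agar with or without 25 μg/mL kanamycin, together with 100 μg/mL carbenicillin, 50 μM IPTG and 0.2% rhamnose. Colonies were pooled and amplicon-sequenced on an Illumina HiSeq 2500. Fitness from DiMSum is the error-weighted combination of wild-type-normalised replicate fold changes, kanamycin over none.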

± gives the uncertainty stated by the source.

For CCGUAGCAAUAUUACGCCUA, the “self-splicing fitness (ln)” value (30 °C) is -3.02 ± 0.34 and the “self-splicing fitness (ln)” value (37 °C) was -2.11 ± 0.27.

For GAAGAGCAAUAUUACGAUAU, the “self-splicing fitness (ln)” value is -4.88 ± 0.36 (30 °C) and -1.06 ± 0.14 (37 °C). AUGGAGCAAUAUUACGAAAA: the “self-splicing fitness (ln)” value (37 °C) is -0.761 ± 0.38. In the case of AGCAAGCAAUAUUACGUGUC, the “self-splicing fitness (ln)” value (30 °C) was -3.85 ± 0.23 and the “self-splicing fitness (ln)” value (37 °C) was -2.44 ± 0.17. As to AUGGAGCAAUAUUACGCCAU, the “self-splicing fitness (ln)” value (30 °C) was -4.27 ± 0.46 and the “self-splicing fitness (ln)” value (37 °C) is -2.17 ± 0.34. The like results for UACGAGCAAUAUUACGCCUG were, in that order, -1.65 ± 0.1 and -0.887 ± 0.14. On to UAGGAGCAAUAUUACGUAGA, for which the “self-splicing fitness (ln)” value is -1.5 ± 0.2 (30 °C) and -1.06 ± 0.16 (37 °C). With CGUGAGCAAUAUUACGGCUC, the “self-splicing fitness (ln)” value was -3.79 ± 0.42 (30 °C) and -1.23 ± 0.27 (37 °C).

Turning to UGCAAGCAAUAUUACGUGAC, the “self-splicing fitness (ln)” value (30 °C) was -2.65 ± 0.39 and the “self-splicing fitness (ln)” value (37 °C) was -2.19 ± 0.28. The like results for CCUGAGCAAUAUUACGGACU were, in that order, -1.55 ± 0.13 and -3.3 ± 0.32.

As to AGCGAGCAAUAUUACGGCAG, the “self-splicing fitness (ln)” value reads like this: (30 °C) -1.87 ± 0.14; (37 °C) -1.07 ± 0.23. The like results for CAUAAGCAAUAUUACGCGUG were, in that order, -3.79 ± 0.26 and -2.88 ± 0.2. For the sequence ACCUAGCAAUAUUACGACUC, the “self-splicing fitness (ln)” value is -0.748 ± 0.088 (30 °C) and -0.405 ± 0.098 (37 °C).

On to CUCGAGCAAUAUUACGACUA, for which the “self-splicing fitness (ln)” value was -3.02 ± 0.33 (30 °C) and -0.507 ± 0.21 (37 °C).

As to CUGAAGCAAUAUUACGAUGC, the “self-splicing fitness (ln)” value was -3.46 ± 0.21 (30 °C) and -2.86 ± 0.33 (37 °C). The like results for CAUAAGCAAUAUUACGUGGG were, in that order, -3.38 ± 0.12 and -3.49 ± 0.18.

As to GACAAGCAAUAUUACGGUCC, the “self-splicing fitness (ln)” value runs as follows: (30 °C) -3.13 ± 0.2; (37 °C) -1.83 ± 0.29. Regarding UUGAAGCAAUAUUACGAUGU, the “self-splicing fitness (ln)” value (30 °C) was -1.61 ± 0.067 and the “self-splicing fitness (ln)” value (37 °C) is -0.962 ± 0.11. As for GCUCAGCAAUAUUACGCGGG, the “self-splicing fitness (ln)” value is -3.41 ± 0.2 (30 °C) and -2.78 ± 0.2 (37 °C). Taken in the same sequence, the figures for UGGAAGCAAUAUUACGCUUA were -1.39 ± 0.13 and 0.125 ± 0.15. Consider UAGUAGCAAUAUUACGGUCC, for which the “self-splicing fitness (ln)” value (37 °C) was -1.53 ± 0.35. Take UUUUAGCAAUAUUACGAACG: the “self-splicing fitness (ln)” value is -0.665 ± 0.11 (30 °C) and 0.449 ± 0.18 (37 °C). Consider GUGAAGCAAUAUUACGAGCU, for which the “self-splicing fitness (ln)” value is, setting by setting: (30 °C) -1.12 ± 0.14; (37 °C) -1.19 ± 0.21. With GGAAAGCAAUAUUACGCAAG, the “self-splicing fitness (ln)” value reads like this: (30 °C) -1.26 ± 0.14; (37 °C) -1.13 ± 0.18. The like results for AAUGAGCAAUAUUACGUCGC were, in that order, -3.95 ± 0.29 and -2.79 ± 0.32. The like results for AAAUAGCAAUAUUACGCCUG were, in that order, -0.3 ± 0.08 and -1.03 ± 0.1. As to GUUGAGCAAUAUUACGUACA, the “self-splicing fitness (ln)” value (37 °C) is -2.37 ± 0.49. For CUAGAGCAAUAUUACGUGCU, the “self-splicing fitness (ln)” value (30 °C) is -3.54 ± 0.28 and the “self-splicing fitness (ln)” value (37 °C) was -0.493 ± 0.15.

With GGCUAGCAAUAUUACGUGCA, the “self-splicing fitness (ln)” value by setting is: (30 °C) 0.326 ± 0.14; (37 °C) 0.0604 ± 0.18. The like results for CAGCAGCAAUAUUACGAUUA were, in that order, -1.77 ± 0.1 and -1 ± 0.11.

Turning to UUAGAGCAAUAUUACGGCAA, the “self-splicing fitness (ln)” value reads like this: (30 °C) -0.627 ± 0.12; (37 °C) -0.584 ± 0.18.

With CCACAGCAAUAUUACGUGGG, the “self-splicing fitness (ln)” value reads like this: (30 °C) -3.56 ± 0.14; (37 °C) -3.13 ± 0.18.

On to GCAUAGCAAUAUUACGAUUG, for which the “self-splicing fitness (ln)” value (30 °C) was -2.38 ± 0.14 and the “self-splicing fitness (ln)” value (37 °C) was -1.67 ± 0.15.

AGUUAGCAAUAUUACGGCUG: the “self-splicing fitness (ln)” value by setting is: (30 °C) -0.983 ± 0.085; (37 °C) -0.309 ± 0.11. The like results for GGUAAGCAAUAUUACGUCUG were, in that order, -1.85 ± 0.14 and -1.51 ± 0.1. Taken in the same sequence, the figures for AAAAAGCAAUAUUACGGCUU were -0.00557 ± 0.049 and 0.259 ± 0.066. The like results for GUAUAGCAAUAUUACGGUUG were, in that order, -3.77 ± 0.3 and -1.35 ± 0.3.

For AUUUAGCAAUAUUACGUAAA, the “self-splicing fitness (ln)” value is -2.28 ± 0.21 (30 °C) and -1.09 ± 0.18 (37 °C).

(Values after the supplement of paper PMC7877785.)
